T1: 血清淀粉样蛋白A (Serum amyloid A, SAA) (UniProt P0DJI8 19-122, limits assumed)
T1 construct: Bought antigen
T1 sequence (looked up): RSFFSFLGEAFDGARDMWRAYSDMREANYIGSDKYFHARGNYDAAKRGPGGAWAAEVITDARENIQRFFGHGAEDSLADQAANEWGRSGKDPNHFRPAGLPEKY


Columns and labels:
[1] = target: T1, 血清淀粉样蛋白A (Serum amyloid A, SAA); assay: indirect ELISA, SAA coated at 2 ug/ml, antibody at 15 ng/ml
[2] = target: T1, 血清淀粉样蛋白A (Serum amyloid A, SAA); assay: BLI, antibody captured on AMC sensor, SAA in solution
[3] = target: T1, 血清淀粉样蛋白A (Serum amyloid A, SAA); assay: indirect ELISA, SAA coated at 2 ug/ml, antibody at 0 ng/ml (blank)
[4] = target: T1, 血清淀粉样蛋白A (Serum amyloid A, SAA); assay: indirect ELISA, SAA coated at 2 ug/ml, antibody at 3.75 ng/ml
[5] = target: T1, 血清淀粉样蛋白A (Serum amyloid A, SAA); assay: indirect ELISA, SAA coated at 2 ug/ml, antibody at 30 ng/ml
[6] = target: T1, 血清淀粉样蛋白A (Serum amyloid A, SAA); assay: indirect ELISA, SAA coated at 2 ug/ml, antibody at 7.5 ng/ml
[7] = target: T1, 血清淀粉样蛋白A (Serum amyloid A, SAA); assay: indirect ELISA, SAA coated at 2 ug/ml, antibody at 60 ng/ml

OD [1] | Kd [2] [nM] | koff [2] [s⁻¹] | kon [2] [M⁻¹ s⁻¹] | OD [3] | OD [4] | OD [5] | OD [6] | OD [7] | Binder
1.13 OD450 (ref. 630 nm) | 0.897 | 6.75e-05 | 75200 | 0.007 OD450 (ref. 630 nm) | 0.386 OD450 (ref. 630 nm) | 1.51 OD450 (ref. 630 nm) | 0.635 OD450 (ref. 630 nm) | 2.21 OD450 (ref. 630 nm) | Anti-SAA 4B3mut1 (antibody, mouse IgG1, kappa, V domains shown, Recombinant monoclonal antibody made in CHO cells, a mutant of Anti-SAA 4B3) VH: QVQLQQSGAELVKPGASVKLSCKTSGYTFTNKYIYWLKQRPGQGLEWIGEIDPSNGATKFNEKFTNKATLTVDRSSTTAYVELSSLTSEDSAVYYCARGAYWGHGTLVTVSA VL: not shown
1.23 OD450 (ref. 630 nm) | 0.906 | 6.67e-05 | 73600 | 0.011 OD450 (ref. 630 nm) | 0.474 OD450 (ref. 630 nm) | 1.95 OD450 (ref. 630 nm) | 0.767 OD450 (ref. 630 nm) | 2.26 OD450 (ref. 630 nm) | Anti-SAA 9G5mut1 (antibody, mouse IgG2a, kappa, Recombinant monoclonal antibody made in CHO cells, a mutant of Anti-SAA 9G5) heavy: EVHLQQSGAELVTPGASVKLSCTASGFNIKDTYMHWVKQRPEQGLEWIGRIDPANGNTKYDPKFQGKATMTADTSSNTAYLQLSSLTSEDTAVYYCARGGNYDWGQGTTLSVSSAKTTAPSVYPLAPVCGDTTGSSVTLGCLVKGYFPEPVTLTWNSGSLSSGVHTFPAVLQSDLYTLSSSVTVTSSTWPSQSITCNVAHPASSTKVDKKIEPRGPTIKPCPPCKCPAPNLLGGPSVFIFPPKIKDVLMISLSPIVTCVVVDVSEDDPDVQISWFVNNVEVHTAQTQTHREDYNSTLRVVSALPIQHQDWMSGKEFKCKVNNKDLPAPIERTISKPKGSVRAPQVYVLPPPEEEMTKKQVTLTCMVTDFMPEDIYVEWTNNGKTELNYKNTEPVLDSDGSYFMYSKLRVEKKNWVERNSYSCSVVHEGLHNHHTTKSFSRTPGK light: DIVLTQSPASLAVSLGQRATISCKASQSVDYDGYSYLNWYQQKPGQPPKLLISAASNLESGIPARFSGSGSGTDFTLNIHPVEEEDAATYYCQQSNEDPYTFGGGTKLQIKRADAAPTVSIFPPSSEQLTSGGASVVCFLNNFYPKDINVKWKIDGSERQNGVLNSWTDQDSKDSTYSMSSTLTLTKDEYERHNSYTCEATHKTSTSPIVKSFNRNEC
1.3 OD450 (ref. 630 nm) | 0.875 | 6.52e-05 | 74500 | 0.011 OD450 (ref. 630 nm) | 0.501 OD450 (ref. 630 nm) | 2.01 OD450 (ref. 630 nm) | 0.801 OD450 (ref. 630 nm) | 2.31 OD450 (ref. 630 nm) | Anti-SAA 9G5mut2 (antibody, mouse IgG2a, kappa, Recombinant monoclonal antibody made in CHO cells, a mutant of Anti-SAA 9G5) heavy: EVHLQQSGAELVTPGASVKLSCTASGFNIKDTYMHWVKQRPEQGLEWIGRIDPANGNTKYDPKFQGKATMTADTSSNTAYLQLSSLTSEDTAVYYCARGGNYDWGQGTTLSVSSAKTTAPSVYPLAPVCGDTTGSSVTLGCLVKGYFPEPVTLTWNSGSLSSGVHTFPAVLQSDLYTLSSSVTVTSSTWPSQSITCNVAHPASSTKVDKKIEPRGPTIKPCPPCKCPAPNLLGGPSVFIFPPKIKDVLMISLSPIVTCVVVDVSEDDPDVQISWFVNNVEVHTAQTQTHREDYNSTLRVVSALPIQHQDWMSGKEFKCKVNNKDLPAPIERTISKPKGSVRAPQVYVLPPPEEEMTKKQVTLTCMVTDFMPEDIYVEWTNNGKTELNYKNTEPVLDSDGSYFMYSKLRVEKKNWVERNSYSCSVVHEGLHNHHTTKSFSRTPGK light: DIVLTQSPASLAVSLGQRATLSCKASQSVDYDGYSYLNWYQQKPGQPPKLLISAASNLESGIPARFSGSGSGTDFTLNIHPVEEEDAATYYCQQSNEDPYTFGGGTKLQIKRADAAPTVSIFPPSSEQLTSGGASVVCFLNNFYPKDINVKWKIDGSERQNGVLNSWTDQDSKDSTYSMSSTLTLTKDEYERHNSYTCEATHKTSTSPIVKSFNRNEC
